Results taken from the RNAGym collection of RNA variant scans (doi:10.7554/elife.80360).

B1: Hairpin Ribozyme (parent)
chain: GUCCUCUUUCACGUGCGCGUGAAAGAGAGAAGUGAACCAGAGAAACACACGUUGUGGUAUAUUACCUGGUA

Variants of: B1
Assay: self-cleavage, relative activity (ratio to wild type); higher = more cleavage; co-transcriptional

Row | Variant | self-cleavage
1 | U20G A49C | 0.172
2 | U20G A49G | 0.364
3 | U20G A59U | 0.123
4 | U20G A61U | 0.142
5 | U20G A71C | 1.25
6 | U20G C37A | 0.186
7 | U20G C38G | 0.119
8 | U20G C46A | 0.229
9 | U20G C46G | 0.219
10 | U20G C48U | 0.228
11 | U20G C65U | 0.374
12 | U20G C66U | 0.411
13 | U20G G21A | 0.846
14 | U20G G21C | 0.75
15 | U20G G25A | 0.469
16 | U20G G27A | 0.31
17 | U20G G29U | 0.101
18 | U20G G40A | 0.296
19 | U20G G40U | 0.206
20 | U20G G51C | 0.572
21 | U20G G56A | 0.0796
22 | U20G G56U | 0.191
23 | U20G G57C | 0.123
24 | U20G G68A | 0.14

Row | Variant | self-cleavage
25 | U20G G69A | 0.421
26 | U20G G69C | 0.284
27 | U20G G69U | 0.22
28 | U20G U33C | 0.109
29 | U20G U52A | 1.09
30 | U20G U52C | 0.998
31 | U20G U53G | 0.702
32 | U20G U58G | 0.835
33 | U20G U60G | 0.662
34 | U20G U62A | 0.149
35 | U20G U62G | 0.323
36 | U20G U63A | 0.171
37 | U20G U63C | 0.255
38 | U20G U63G | 0.265
39 | U20G U67G | 0.157
40 | U20G U70G | 0.994
41 | G21A | 0.809
42 | G21A A22C | 0.581
43 | G21A A22U | 0.771
44 | G21A A23C | 0.683
45 | G21A A23G | 0.707
46 | G21A A23U | 0.825
47 | G21A A24C | 0.563
48 | G21A A24G | 0.576

Row | Variant | self-cleavage
49 | G21A A30G | 0.238
50 | G21A A30U | 0.144
51 | G21A A31C | 0.133
52 | G21A A31G | 0.424
53 | G21A A35U | 0.653
54 | G21A A39G | 0.306
55 | G21A A41C | 0.761
56 | G21A A41G | 0.765
57 | G21A A44C | 0.116
58 | G21A A44G | 0.142
59 | G21A A44U | 0.215
60 | G21A A45C | 0.16
61 | G21A A45G | 0.177
62 | G21A A61C | 0.253
63 | G21A C46G | 0.254
64 | G21A C46U | 0.173
65 | G21A C48G | 0.192
66 | G21A C50G | 0.217
67 | G21A C66A | 0.201
68 | G21A G25A | 0.239
69 | G21A G25C | 0.358
70 | G21A G27A | 0.346
71 | G21A G27C | 0.195
72 | G21A G29A | 0.166

Row | Variant | self-cleavage
73 | G21A G34C | 1.11
74 | G21A G40A | 0.312
75 | G21A G40C | 0.169
76 | G21A G51A | 1.04
77 | G21A G51C | 0.771
78 | G21A G51U | 0.99
79 | G21A G56C | 0.2
80 | G21A G57C | 0.193
81 | G21A G57U | 0.232
82 | G21A G68U | 0.165
83 | G21A G69C | 0.246
84 | G21A G69U | 0.197
85 | G21A U33A | 0.151
86 | G21A U52A | 0.78
87 | G21A U53G | 0.699
88 | G21A U55C | 0.242
89 | G21A U55G | 0.271
90 | G21A U58A | 0.533
91 | G21A U58C | 0.916
92 | G21A U60G | 0.533
93 | G21A U62A | 0.135
94 | G21A U62C | 0.199
95 | G21A U67A | 0.23
96 | G21A U67C | 0.248

Row | Variant | self-cleavage
97 | G21A U70C | 0.758
98 | G21A U70G | 0.821
99 | G21C | 0.812
100 | G21C A22G | 0.786
101 | G21C A23G | 0.77
102 | G21C A24U | 0.585
103 | G21C A26G | 0.528
104 | G21C A28C | 0.412
105 | G21C A28G | 0.852
106 | G21C A31C | 0.0833
107 | G21C A31U | 0.0322
108 | G21C A35G | 0.666
109 | G21C A39C | 0.463
110 | G21C A41G | 0.606
111 | G21C A47G | 0.157
112 | G21C A49C | 0.17
113 | G21C A49G | 0.302
114 | G21C A49U | 0.293
115 | G21C A61G | 0.104
116 | G21C A61U | 0.304
117 | G21C A71U | 0.794
118 | G21C C38G | 0.154
119 | G21C C48A | 0.0883
120 | G21C C50A | 0.386

Row | Variant | self-cleavage
121 | G21C C50U | 0.256
122 | G21C C65G | 0.249
123 | G21C C65U | 0.304
124 | G21C G25C | 0.238
125 | G21C G27U | 0.2
126 | G21C G29A | 0.0976
127 | G21C G29C | 0.119
128 | G21C G34A | 1.02
129 | G21C G40A | 0.258
130 | G21C G42A | 0.216
131 | G21C G42C | 0.195
132 | G21C G51C | 0.803
133 | G21C G51U | 0.865
134 | G21C G54C | 0.305
135 | G21C G56A | 0.184
136 | G21C G57C | 0.143
137 | G21C G69U | 0.155
138 | G21C U33C | 0.145
139 | G21C U33G | 0.238
140 | G21C U52G | 0.654
141 | G21C U53G | 0.58
142 | G21C U55A | 0.165
143 | G21C U55C | 0.204
144 | G21C U55G | 0.248

Row | Variant | self-cleavage
145 | G21C U62A | 0.206
146 | G21C U62C | 0.334
147 | G21C U70A | 0.779
148 | G21C U70C | 0.965
149 | G21U | 0.844
150 | G21U A24G | 0.805
151 | G21U A26G | 0.708
152 | G21U A26U | 0.561
153 | G21U A28C | 0.366
154 | G21U A28G | 0.98
155 | G21U A31U | 0.0962
156 | G21U A35G | 0.757
157 | G21U A41G | 0.772
158 | G21U A43C | 0.146
159 | G21U A45C | 0.218
160 | G21U A45G | 0.26
161 | G21U A45U | 0.218
162 | G21U A47C | 0.282
163 | G21U A49U | 0.189
164 | G21U A61G | 0.245
165 | G21U A71C | 1.2
166 | G21U A71U | 0.754
167 | G21U C37G | 0.32
